± gives the uncertainty stated by the source.
Assay: self-splicing fitness, log relative to wild type (ln ratio); higher = more splicing; Tetrahymena group I intron in knt gene, E. coli kanamycin selection, DiMSum; sequences stand for … in CUCUCU…GGAGGGAAAAGUUAUCAGGCAUGCACCUGGUAGCUAGUCUUUAAACCAAUAGAUUGCAUCGGUUUAAAAGGCAAGACCGUCAAAUUGCGGGAAAGGGGUCAACAGCCGUUCAGUACCAAGUCUCAGGGGAAACUUUGAGAUGGCCUUGCAAAGGGUAUGGUAAUAAGCUGACGGACAUGGUCCUAACCACGCAGCCAAGUCCUAAGUCAACAGAUCUUCUGUUGAUAUGGAUGCAGUUCACAGACUAAAUGUCGGUCGGGGAAGAUGUAUUCUUCUCAUAAGAUAUAGUCGGACCUCUCCUUAAUGGGAGCUAGCGGAUGAAGUGAUGCAACACUGGAGCCGCUGGGAACUAAUUUGUAUGCGAAAGUAUAUUGAUUAGUUUUGGAGUACUCGUGGUCG
Summary of the method: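 Library with all eight P1ex-region intron nucleotides randomised, intron inside the knt kanamycin-resistance gene on pET-22b(+), in E. coli BL21(DE3). Cells grew overnight at 37°C or 30°C on LB agar with or without 25 μg/mL kanamycin (plus 100 μg/mL carbenicillin, 50 μM IPTG, 0.2% rhamnose), in six replicate transformations. Pooled colonies were amplicon-sequenced on Illumina HiSeq 2500. DiMSum fitness is the error-weighted combination of wild-type-normalised replicate fold changes, kanamycin versus none.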

Sequence | self-splicing fitness (ln) (30 °C) | self-splicing fitness (ln) (37 °C)
ACGAAGCAAUAUUACGUGAC | -3.87 ± 0.26 | -1.12 ± 0.17
ACGAAGCAAUAUUACGUUGG | -3.56 ± 0.16 | -2.38 ± 0.17
ACGCAGCAAUAUUACGAUCA | -1.66 ± 0.099 | -1.26 ± 0.093
ACGCAGCAAUAUUACGAUCU | -0.427 ± 0.063 | 0.356 ± 0.091
ACGCAGCAAUAUUACGAUUA | -1.54 ± 0.091 | -0.902 ± 0.079
ACGCAGCAAUAUUACGCAGC | -3.49 ± 0.18 | -2.16 ± 0.25
ACGCAGCAAUAUUACGCCAC | – | -3.22 ± 0.37
ACGCAGCAAUAUUACGCCCA | -0.672 ± 0.096 | -0.153 ± 0.12
ACGCAGCAAUAUUACGCGAU | -3.38 ± 0.16 | -2.22 ± 0.16
ACGCAGCAAUAUUACGCGGG | -2.94 ± 0.12 | -0.419 ± 0.099
ACGCAGCAAUAUUACGCUAU | -1.25 ± 0.077 | -0.724 ± 0.11
ACGCAGCAAUAUUACGCUUC | -2.75 ± 0.26 | -2.48 ± 0.22
ACGCAGCAAUAUUACGGAAC | -3.67 ± 0.2 | -1.78 ± 0.17
ACGCAGCAAUAUUACGGAAU | -2.27 ± 0.1 | -2.07 ± 0.14
ACGCAGCAAUAUUACGGCGC | -3.39 ± 0.14 | -1.63 ± 0.11
ACGCAGCAAUAUUACGGCGG | -2.14 ± 0.074 | -1.91 ± 0.14
ACGCAGCAAUAUUACGGGCG | -1.5 ± 0.063 | -1.3 ± 0.072
ACGCAGCAAUAUUACGGGUA | -2.46 ± 0.11 | -1.37 ± 0.087
ACGCAGCAAUAUUACGGUGC | -2.18 ± 0.15 | –
ACGCAGCAAUAUUACGGUGG | -2.52 ± 0.11 | -1.17 ± 0.11
ACGCAGCAAUAUUACGGUUG | -3.89 ± 0.2 | -1.85 ± 0.14
ACGCAGCAAUAUUACGUAAC | -3.99 ± 0.22 | -2.37 ± 0.23
ACGCAGCAAUAUUACGUAAG | -0.0743 ± 0.099 | -1.27 ± 0.13
ACGCAGCAAUAUUACGUCGU | -3.77 ± 0.26 | -1.6 ± 0.21
ACGCAGCAAUAUUACGUGGU | -4.06 ± 0.12 | -2.58 ± 0.091

Sequence | self-splicing fitness (ln) (30 °C) | self-splicing fitness (ln) (37 °C)
ACGCAGCAAUAUUACGUUGA | -1.43 ± 0.11 | -1.73 ± 0.11
ACGCAGCAAUAUUACGUUUC | -3.87 ± 0.2 | -2.61 ± 0.25
ACGGAGCAAUAUUACGACGG | -1.46 ± 0.1 | 0.14 ± 0.12
ACGGAGCAAUAUUACGAUAG | -3.57 ± 0.29 | -3.09 ± 0.34
ACGGAGCAAUAUUACGAUGG | -3.63 ± 0.32 | -0.86 ± 0.27
ACGGAGCAAUAUUACGCCAA | -3.46 ± 0.33 | -3.34 ± 0.47
ACGGAGCAAUAUUACGCGCU | -3.23 ± 0.3 | -1.17 ± 0.21
ACGGAGCAAUAUUACGCGGU | -2.86 ± 0.25 | -1.03 ± 0.31
ACGGAGCAAUAUUACGCGUC | – | -1.92 ± 0.33
ACGGAGCAAUAUUACGCUAC | -3.07 ± 0.33 | -2.06 ± 0.39
ACGGAGCAAUAUUACGGACG | -1.96 ± 0.19 | -1.17 ± 0.22
ACGGAGCAAUAUUACGGCUG | -2.87 ± 0.12 | -1.26 ± 0.13
ACGGAGCAAUAUUACGGGUA | -2.34 ± 0.25 | -3.02 ± 0.32
ACGGAGCAAUAUUACGGUUA | -2.6 ± 0.23 | -2.2 ± 0.15
ACGGAGCAAUAUUACGUAAG | -3.18 ± 0.2 | -1.82 ± 0.24
ACGGAGCAAUAUUACGUCAC | -3.48 ± 0.31 | -2.42 ± 0.45
ACGGAGCAAUAUUACGUCGC | -2.93 ± 0.24 | -1.42 ± 0.18
ACGGAGCAAUAUUACGUCGG | -3.04 ± 0.31 | -0.422 ± 0.23
ACGGAGCAAUAUUACGUUCC | -3.92 ± 0.47 | -2.01 ± 0.37
ACGUAGCAAUAUUACGAACA | -1.56 ± 0.24 | -0.252 ± 0.2
ACGUAGCAAUAUUACGACUC | -0.301 ± 0.26 | -0.584 ± 0.27
ACGUAGCAAUAUUACGACUU | -0.145 ± 0.099 | 0.593 ± 0.13
ACGUAGCAAUAUUACGAUAA | -1.52 ± 0.13 | -1.51 ± 0.18
ACGUAGCAAUAUUACGAUAG | -3.45 ± 0.24 | -2.53 ± 0.23
ACGUAGCAAUAUUACGAUCC | -1.03 ± 0.17 | -0.00168 ± 0.18

Sequence | self-splicing fitness (ln) (30 °C) | self-splicing fitness (ln) (37 °C)
ACGUAGCAAUAUUACGCACC | -1.18 ± 0.11 | -0.224 ± 0.16
ACGUAGCAAUAUUACGCAGU | -2.58 ± 0.2 | -2.54 ± 0.24
ACGUAGCAAUAUUACGGAAA | -2.27 ± 0.4 | -1.94 ± 0.33
ACGUAGCAAUAUUACGGACC | -1.21 ± 0.16 | -0.314 ± 0.2
ACGUAGCAAUAUUACGGCUC | -1.2 ± 0.12 | -0.844 ± 0.15
ACGUAGCAAUAUUACGGUGC | -3.86 ± 0.4 | -2.01 ± 0.22
ACGUAGCAAUAUUACGUAGC | -3.34 ± 0.27 | -2.62 ± 0.35
ACGUAGCAAUAUUACGUCCA | -1.02 ± 0.14 | -1.13 ± 0.15
ACGUAGCAAUAUUACGUCUU | -3.76 ± 0.16 | -1.92 ± 0.15
ACGUAGCAAUAUUACGUGCG | -2.19 ± 0.1 | -1.17 ± 0.11
ACGUAGCAAUAUUACGUGGU | -4.03 ± 0.18 | -1.13 ± 0.094
ACGUAGCAAUAUUACGUUGU | -3.07 ± 0.11 | -2.01 ± 0.14
ACUAAGCAAUAUUACGAAGU | -3.81 ± 0.38 | -2.1 ± 0.35
ACUAAGCAAUAUUACGAAUG | -2.31 ± 0.13 | -1.2 ± 0.14
ACUAAGCAAUAUUACGACCU | -0.123 ± 0.081 | 0.342 ± 0.1
ACUAAGCAAUAUUACGACGU | -0.322 ± 0.066 | 0.158 ± 0.082
ACUAAGCAAUAUUACGAGGA | -2.34 ± 0.23 | -2.13 ± 0.2
ACUAAGCAAUAUUACGAGUU | -3.56 ± 0.15 | -3.42 ± 0.25
ACUAAGCAAUAUUACGAUAG | -1.34 ± 0.076 | -0.427 ± 0.096
ACUAAGCAAUAUUACGCAUA | -1.9 ± 0.14 | -2.14 ± 0.14
ACUAAGCAAUAUUACGCCUG | -1.78 ± 0.14 | -0.595 ± 0.15
ACUAAGCAAUAUUACGCGAA | -1.57 ± 0.13 | -1.22 ± 0.17
ACUAAGCAAUAUUACGCGAC | -2.71 ± 0.19 | -2.78 ± 0.21
ACUAAGCAAUAUUACGCGUG | -1.58 ± 0.098 | -0.684 ± 0.095
ACUAAGCAAUAUUACGCGUU | -3.36 ± 0.13 | -1.58 ± 0.11

Reference: the supplement of paper PMC7877785
